From patent publication US20210246218A1

Biological target: human FcγRIIB-Ile232 on CHO-K1 cells (human) (UniProt P31994)
Test: flow cytometry on CHO-huFcγRIIB cells, anti-human Fc F(ab')2

human FcγRIIB-Ile232 on CHO-K1 cells (human), sequence (P31994 43-310): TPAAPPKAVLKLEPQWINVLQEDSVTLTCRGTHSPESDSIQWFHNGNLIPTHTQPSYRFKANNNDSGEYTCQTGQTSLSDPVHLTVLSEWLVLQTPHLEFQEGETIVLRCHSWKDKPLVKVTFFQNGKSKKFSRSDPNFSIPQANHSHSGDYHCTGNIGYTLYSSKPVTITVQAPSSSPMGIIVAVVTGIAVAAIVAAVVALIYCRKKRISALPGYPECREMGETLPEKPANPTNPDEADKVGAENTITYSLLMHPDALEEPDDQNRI

**Q.** For Avastin (antibody), which EC50 (read off the curve) is on record?
**A.** Its EC50 (read off the curve) is 5 µg/mL.
